Assay in all cases: ELISA, antigen coated at 2 µg/mL
For orientation: ELISA stands for enzyme-linked immunosorbent assay.

Assay [1] addresses CoV-2 RBD (N354D) (SARS-CoV-2) (UniProt P0DTC2).
In assay [2] the target is CoV-2 RBD (N354D, D364Y) (SARS-CoV-2) (UniProt P0DTC2).
Assay [3] concerns the target CoV-2 RBD (V367F) (SARS-CoV-2) (UniProt P0DTC2).
The target in assay [4] is CoV-2 RBD (W436R) (SARS-CoV-2) (UniProt P0DTC2).
Assay [5] has as its target CoV-2 S (D614G) (SARS-CoV-2) (UniProt P0DTC2).
The target in assay [6] is CoV-2 S (R683A, R685A) (SARS-CoV-2) (UniProt P0DTC2).

Broadly, the EC50 is the concentration at which the effect is half-maximal. A lower EC50 goes with a more potent agent.

Turning to SARS CoV-2 mAb [SAD-S35] (antibody), the EC50 in assay [1] was 0.04 µg/mL; in assay [2], 0.05 µg/mL; in assay [3], 0.04 µg/mL; in assay [4], 0.04 µg/mL; in assay [5] it was 0.03 µg/mL; in assay [6], 0.05 µg/mL.
Take IVIG (Gamunex): the EC50 in assay [1] amounted to 1240 µg/mL; in assay [2] it was 1320 µg/mL; in assay [3], 1130 µg/mL; in assay [4], 1240 µg/mL; in assay [5], 1330 µg/mL; in assay [6], 2840 µg/mL.

For the origin of these results see patent US20230265171A1.
